Data on seven molecules can be found in patent US20220016130A1 (MAYO FOUNDATION FOR MEDICAL EDUCATION AND RESEARCH, published 2022).

In assay [1] the target is T1, BRD4 (human, UniProt O60885 1-1362).
T1 construct: One entry covers endogenous, Flag-tagged and HA-tagged full-length BRD4; also called FLAG-BRD4; Flag-BRD4
In words: co-IP from 293T cells transfected with Flag-tagged USPs and HA-BRD4. The procedure:
(§1) To immunoprecipitate the ectopically expressed FLAG-tagged proteins, transfected cells were lysed 24 hours post-transfection in BC100 buffer. The whole-cell lysates were immunoprecipitated with the monoclonal anti-FLAG antibody-conjugated M2 agarose beads (Sigma-Aldrich) at 4° C. overnight. After three washes with lysis buffer, followed by two washes with BC100 buffer, the bound proteins were eluted using FLAG-Peptide (Sigma-Aldrich) prepared in BC100 for 3 hours at 4° C. The eluted protein sample was resolved by SDS-PAGE. To immunoprecipitate the endogenous proteins, cells were lysed with 1× cell lysis buffer (Cell Signaling Technology), and the lysate was centrifuged. The supernatant was precleared with protein A/G beads (Sigma-Aldrich) and incubated with the indicated antibody and protein A/G beads at 4° C. overnight. Beads were washed five times with lysis buffer and resuspended in sample buffer and analyzed by SDS-PAGE.

A further assay has as its target T2, BRD2 (human, UniProt P25440 1-801).
T2 construct: One entry covers endogenous and FLAG-tagged full-length BRD2; also called FLAG-BRD2; Flag-BRD2
Kind of assay: co-IP of endogenous proteins in PC-3 cells. The procedure:
as §1

Another assay concerns the target T3, BRD3 (human, UniProt Q15059 1-726).
T3 construct: One entry covers endogenous and FLAG-tagged full-length BRD3; also called FLAG-BRD3; Flag-BRD3
In words: co-IP of endogenous proteins in PC-3 cells. The procedure:
as §1

The target of assay [2] is T1, BRD4. In words: co-IP from 293T cells transfected with Flag-tagged USPs (DUB3 and other DUBs) and HA-BRD4. The procedure:
as §1

Another assay has as its target NCOR2 (human, UniProt Q9Y618 1-2514, limits assumed). Kind of assay: reciprocal co-IP of endogenous proteins in C4-2 cells. The procedure:
as §1

The target of assay [3] is T1, BRD4. In words: GST pull-down of Flag-BRD4 from PC-3 cells.

T3 sequence (Q15059 whole entry): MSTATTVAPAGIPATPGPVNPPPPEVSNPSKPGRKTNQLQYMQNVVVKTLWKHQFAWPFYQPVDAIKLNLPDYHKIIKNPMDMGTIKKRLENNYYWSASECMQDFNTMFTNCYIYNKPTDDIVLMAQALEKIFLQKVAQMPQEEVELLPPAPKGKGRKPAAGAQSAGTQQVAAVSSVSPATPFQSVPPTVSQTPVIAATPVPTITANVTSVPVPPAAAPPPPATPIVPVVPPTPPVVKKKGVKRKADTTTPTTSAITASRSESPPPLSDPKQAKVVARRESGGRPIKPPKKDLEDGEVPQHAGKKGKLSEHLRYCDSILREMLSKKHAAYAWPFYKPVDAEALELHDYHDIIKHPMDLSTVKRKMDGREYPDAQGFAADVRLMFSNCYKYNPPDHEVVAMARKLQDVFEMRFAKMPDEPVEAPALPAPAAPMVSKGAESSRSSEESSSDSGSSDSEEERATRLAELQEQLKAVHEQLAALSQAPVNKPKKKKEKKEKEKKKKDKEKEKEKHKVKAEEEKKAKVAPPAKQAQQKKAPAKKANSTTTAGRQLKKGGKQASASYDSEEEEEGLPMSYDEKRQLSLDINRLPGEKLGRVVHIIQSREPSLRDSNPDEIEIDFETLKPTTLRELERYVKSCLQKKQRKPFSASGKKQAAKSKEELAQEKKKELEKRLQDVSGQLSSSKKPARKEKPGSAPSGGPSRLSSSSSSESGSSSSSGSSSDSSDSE
Chain of NCOR2 (Q9Y618 whole entry): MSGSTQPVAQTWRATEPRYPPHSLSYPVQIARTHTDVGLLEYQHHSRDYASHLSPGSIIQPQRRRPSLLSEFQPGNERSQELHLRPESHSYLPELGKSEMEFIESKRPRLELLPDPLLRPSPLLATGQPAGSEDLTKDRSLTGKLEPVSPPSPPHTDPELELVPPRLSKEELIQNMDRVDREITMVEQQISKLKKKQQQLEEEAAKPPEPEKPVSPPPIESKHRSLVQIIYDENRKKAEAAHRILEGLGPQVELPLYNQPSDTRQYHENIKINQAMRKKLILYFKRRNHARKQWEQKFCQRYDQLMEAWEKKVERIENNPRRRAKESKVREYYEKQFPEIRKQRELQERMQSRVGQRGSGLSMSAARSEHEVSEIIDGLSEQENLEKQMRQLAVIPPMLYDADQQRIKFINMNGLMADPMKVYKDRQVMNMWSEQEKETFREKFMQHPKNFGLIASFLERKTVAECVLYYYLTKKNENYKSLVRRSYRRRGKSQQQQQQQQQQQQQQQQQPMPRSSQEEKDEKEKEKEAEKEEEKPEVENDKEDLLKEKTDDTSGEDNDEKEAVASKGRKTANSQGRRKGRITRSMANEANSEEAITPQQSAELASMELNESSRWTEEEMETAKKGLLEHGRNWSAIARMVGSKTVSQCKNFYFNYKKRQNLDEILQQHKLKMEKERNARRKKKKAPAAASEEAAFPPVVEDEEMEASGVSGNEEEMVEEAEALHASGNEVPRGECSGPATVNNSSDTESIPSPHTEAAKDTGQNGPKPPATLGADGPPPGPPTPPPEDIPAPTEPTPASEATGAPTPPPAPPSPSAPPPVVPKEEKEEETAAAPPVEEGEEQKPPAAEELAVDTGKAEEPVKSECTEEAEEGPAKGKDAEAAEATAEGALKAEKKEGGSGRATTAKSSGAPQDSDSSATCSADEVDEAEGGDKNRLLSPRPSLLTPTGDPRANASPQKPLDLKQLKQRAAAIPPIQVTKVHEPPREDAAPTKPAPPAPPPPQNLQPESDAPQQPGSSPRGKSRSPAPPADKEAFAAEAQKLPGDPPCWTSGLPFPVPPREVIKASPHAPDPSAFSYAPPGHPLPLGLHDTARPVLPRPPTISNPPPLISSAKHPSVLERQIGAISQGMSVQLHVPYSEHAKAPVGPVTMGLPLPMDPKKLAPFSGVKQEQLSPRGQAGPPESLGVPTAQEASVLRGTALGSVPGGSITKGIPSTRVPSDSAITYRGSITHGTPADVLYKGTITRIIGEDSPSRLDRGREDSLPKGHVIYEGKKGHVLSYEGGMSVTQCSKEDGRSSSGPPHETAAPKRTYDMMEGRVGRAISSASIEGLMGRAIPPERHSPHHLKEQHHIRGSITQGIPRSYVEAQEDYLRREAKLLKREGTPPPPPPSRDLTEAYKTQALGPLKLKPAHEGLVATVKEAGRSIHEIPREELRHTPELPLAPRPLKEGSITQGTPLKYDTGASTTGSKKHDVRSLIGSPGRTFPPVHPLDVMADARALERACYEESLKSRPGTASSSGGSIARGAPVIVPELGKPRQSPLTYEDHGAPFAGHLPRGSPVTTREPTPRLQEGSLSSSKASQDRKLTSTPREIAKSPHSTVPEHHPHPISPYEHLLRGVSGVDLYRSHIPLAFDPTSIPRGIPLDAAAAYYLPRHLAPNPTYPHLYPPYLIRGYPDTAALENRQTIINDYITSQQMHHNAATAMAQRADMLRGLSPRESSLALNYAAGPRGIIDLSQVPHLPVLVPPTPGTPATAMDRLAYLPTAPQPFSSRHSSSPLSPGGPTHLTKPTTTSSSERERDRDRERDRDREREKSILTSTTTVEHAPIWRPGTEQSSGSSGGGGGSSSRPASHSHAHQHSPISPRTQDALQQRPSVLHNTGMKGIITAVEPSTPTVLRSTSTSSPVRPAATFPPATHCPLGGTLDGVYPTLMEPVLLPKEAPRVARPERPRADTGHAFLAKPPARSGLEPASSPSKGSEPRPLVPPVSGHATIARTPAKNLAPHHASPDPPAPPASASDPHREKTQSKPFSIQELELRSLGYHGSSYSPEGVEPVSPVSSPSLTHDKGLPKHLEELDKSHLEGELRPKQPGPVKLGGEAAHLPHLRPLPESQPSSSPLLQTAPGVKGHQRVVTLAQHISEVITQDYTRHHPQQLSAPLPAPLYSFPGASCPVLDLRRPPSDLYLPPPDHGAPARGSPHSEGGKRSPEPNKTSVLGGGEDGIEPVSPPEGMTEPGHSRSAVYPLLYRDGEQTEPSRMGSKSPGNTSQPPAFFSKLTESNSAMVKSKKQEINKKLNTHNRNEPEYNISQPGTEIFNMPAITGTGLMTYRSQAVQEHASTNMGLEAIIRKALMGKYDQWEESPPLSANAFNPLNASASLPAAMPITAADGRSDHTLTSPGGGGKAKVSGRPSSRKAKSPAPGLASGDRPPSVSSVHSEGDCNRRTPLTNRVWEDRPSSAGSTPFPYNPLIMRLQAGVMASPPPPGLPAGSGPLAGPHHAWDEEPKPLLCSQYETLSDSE
T2 sequence (P25440 whole entry): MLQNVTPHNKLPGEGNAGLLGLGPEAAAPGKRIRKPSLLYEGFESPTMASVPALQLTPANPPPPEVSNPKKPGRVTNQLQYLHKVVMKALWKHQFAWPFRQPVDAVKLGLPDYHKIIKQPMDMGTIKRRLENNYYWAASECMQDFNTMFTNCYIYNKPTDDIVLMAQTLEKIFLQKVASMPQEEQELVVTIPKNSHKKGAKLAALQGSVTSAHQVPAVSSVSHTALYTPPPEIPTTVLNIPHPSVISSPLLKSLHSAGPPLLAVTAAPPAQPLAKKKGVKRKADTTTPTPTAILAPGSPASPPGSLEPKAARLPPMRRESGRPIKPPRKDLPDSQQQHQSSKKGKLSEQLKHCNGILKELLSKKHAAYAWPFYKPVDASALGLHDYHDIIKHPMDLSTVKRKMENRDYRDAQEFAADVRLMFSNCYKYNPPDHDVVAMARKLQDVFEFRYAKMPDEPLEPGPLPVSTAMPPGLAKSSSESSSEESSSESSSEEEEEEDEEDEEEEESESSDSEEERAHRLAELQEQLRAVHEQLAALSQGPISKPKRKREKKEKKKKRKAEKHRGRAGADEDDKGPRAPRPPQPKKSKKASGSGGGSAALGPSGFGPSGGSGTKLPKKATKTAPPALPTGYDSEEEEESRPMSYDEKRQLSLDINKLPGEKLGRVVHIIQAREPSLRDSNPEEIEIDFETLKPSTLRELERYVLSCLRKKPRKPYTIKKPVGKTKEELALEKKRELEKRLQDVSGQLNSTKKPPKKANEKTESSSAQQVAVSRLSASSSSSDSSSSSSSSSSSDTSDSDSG

B1: Flag-USP15 (enzyme, UniProt Q9Y4E8 1-981, looked up)
chain: MAEGGAADLDTQRSDIATLLKTSLRKGDTWYLVDSRWFKQWKKYVGFDSWDKYQMGDQNVYPGPIDNSGLLKDGDAQSLKEHLIDELDYILLPTEGWNKLVSWYTLMEGQEPIARKVVEQGMFVKHCKVEVYLTELKLCENGNMNNVVTRRFSKADTIDTIEKEIRKIFSIPDEKETRLWNKYMSNTFEPLNKPDSTIQDAGLYQGQVLVIEQKNEDGTWPRGPSTPKSPGASNFSTLPKISPSSLSNNYNNMNNRNVKNSNYCLPSYTAYKNYDYSEPGRNNEQPGLCGLSNLGNTCFMNSAIQCLSNTPPLTEYFLNDKYQEELNFDNPLGMRGEIAKSYAELIKQMWSGKFSYVTPRAFKTQVGRFAPQFSGYQQQDCQELLAFLLDGLHEDLNRIRKKPYIQLKDADGRPDKVVAEEAWENHLKRNDSIIVDIFHGLFKSTLVCPECAKISVTFDPFCYLTLPLPMKKERTLEVYLVRMDPLTKPMQYKVVVPKIGNILDLCTALSALSGIPADKMIVTDIYNHRFHRIFAMDENLSSIMERDDIYVFEININRTEDTEHVIIPVCLREKFRHSSYTHHTGSSLFGQPFLMAVPRNNTEDKLYNLLLLRMCRYVKISTETEETEGSLHCCKDQNINGNGPNGIHEEGSPSEMETDEPDDESSQDQELPSENENSQSEDSVGGDNDSENGLCTEDTCKGQLTGHKKRLFTFQFNNLGNTDINYIKDDTRHIRFDDRQLRLDERSFLALDWDPDLKKRYFDENAAEDFEKHESVEYKPPKKPFVKLKDCIELFTTKEKLGAEDPWYCPNCKEHQQATKKLDLWSLPPVLVVHLKRFSYSRYMRDKLDTLVDFPINDLDMSEFLINPNAGPCRYNLIAVSNHYGGMGGGHYTAFAKNKDDGKWYYFDDSSVSTASEDQIVSKAAYVLFYQRQDTFSGTGFFPLDRETKGASAATGIPLESDEDSNDNDNDIENENCMHTN
notes: not shown: Flag tag
As for B1, in the assay with BRD4 [1], the binding result is given as “no binding”.

B2: DUB3 (enzyme, human, UniProt Q6R6M4 1-530, looked up)
chain: MEDDSLYLGGEWQFNHFSKLTSSRPDAAFAEIQRTSLPEKSPLSSEARVDLCDDLAPVARQLAPRKKLPLSSRRPAAVGAGLQNMGNTCYENASLQCLTYTPPLANYMLSREHSQTCQRPKCCMLCTMQAHITWALHSPGHVIQPSQALAAGFHRGKQEDAHEFLMFTVDAMKKACLPGHKQVDHHSKDTTLIHQIFGGCWRSQIKCLHCHGISDTFDPYLDIALDIQAAQSVKQALEQLVKPEELNGENAYHCGLCLQRAPASKTLTLHTSAKVLILVLKRFSDVTGNKLAKNVQYPECLDMQPYMSQQNTGPLVYVLYAVLVHAGWSCHDGHYFSYVKAQEGQWYKMDDAKVTACSITSVLSQQAYVLFYIQKSEWERHSESVSRGREPRALGAEDTDRRATQGELKRDHPCLQAPELDERLVERATQESTLDHWKFPQEQNKTKPEFNVRKVEGTLPPNVLVIHQSKYKCGMKNHHPEQQSSLLNLSSTTRTDQESVNTGTLASLQGRTRRSKGKNKHSKRALLVCQ
notes: One entry covers endogenous, HA-tagged and Flag-tagged full-length DUB3; also called USP17L2; USP17
In the case of B2, the binding result in the assay with BRD2 is on record as “no binding”; with BRD3 it was “no binding”; in the assay with BRD4 [2] it was “binds”.

B3: Flag-USP13 (enzyme, UniProt Q92995 1-863, looked up)
chain: MQRRGALFGMPGGSGGRKMAAGDIGELLVPHMPTIRVPRSGDRVYKNECAFSYDSPNSEGGLYVCMNTFLAFGREHVERHFRKTGQSVYMHLKRHVREKVRGASGGALPKRRNSKIFLDLDTDDDLNSDDYEYEDEAKLVIFPDHYEIALPNIEELPALVTIACDAVLSSKSPYRKQDPDTWENELPVSKYANNLTQLDNGVRIPPSGWKCARCDLRENLWLNLTDGSVLCGKWFFDSSGGNGHALEHYRDMGYPLAVKLGTITPDGADVYSFQEEEPVLDPHLAKHLAHFGIDMLHMHGTENGLQDNDIKLRVSEWEVIQESGTKLKPMYGPGYTGLKNLGNSCYLSSVMQAIFSIPEFQRAYVGNLPRIFDYSPLDPTQDFNTQMTKLGHGLLSGQYSKPPVKSELIEQVMKEEHKPQQNGISPRMFKAFVSKSHPEFSSNRQQDAQEFFLHLVNLVERNRIGSENPSDVFRFLVEERIQCCQTRKVRYTERVDYLMQLPVAMEAATNKDELIAYELTRREAEANRRPLPELVRAKIPFSACLQAFSEPENVDDFWSSALQAKSAGVKTSRFASFPEYLVVQIKKFTFGLDWVPKKFDVSIDMPDLLDINHLRARGLQPGEEELPDISPPIVIPDDSKDRLMNQLIDPSDIDESSVMQLAEMGFPLEACRKAVYFTGNMGAEVAFNWIIVHMEEPDFAEPLTMPGYGGAASAGASVFGASGLDNQPPEEIVAIITSMGFQRNQAIQALRATNNNLERALDWIFSHPEFEEDSDFVIEMENNANANIISEAKPEGPRVKDGSGTYELFAFISHMGTSTMSGHYICHIKKEGRWVIYNDHKVCASERPPKDLGYMYFYRRIPS
notes: not shown: Flag tag
As for B3, the binding result with BRD4 [1] is “no binding”.

B4: HDAC10 (enzyme, human, UniProt Q969S8 1-669, looked up)
chain: MGTALVYHEDMTATRLLWDDPECEIERPERLTAALDRLRQRGLEQRCLRLSAREASEEELGLVHSPEYVSLVRETQVLGKEELQALSGQFDAIYFHPSTFHCARLAAGAGLQLVDAVLTGAVQNGLALVRPPGHHGQRAAANGFCVFNNVAIAAAHAKQKHGLHRILVVDWDVHHGQGIQYLFEDDPSVLYFSWHRYEHGRFWPFLRESDADAVGRGQGLGFTVNLPWNQVGMGNADYVAAFLHLLLPLAFEFDPELVLVSAGFDSAIGDPEGQMQATPECFAHLTQLLQVLAGGRVCAVLEGGYHLESLAESVCMTVQTLLGDPAPPLSGPMAPCQSALESIQSARAAQAPHWKSLQQQDVTAVPMSPSSHSPEGRPPPLLPGGPVCKAAASAPSSLLDQPCLCPAPSVRTAVALTTPDITLVLPPDVIQQEASALREETEAWARPHESLAREEALTALGKLLYLLDGMLDGQVNSGIAATPASAAAATLDVAVRRGLSHGAQRLLCVALGQLDRPPDLAHDGRSLWLNIRGKEAAALSMFHVSTPLPVMTGGFLSCILGLVLPLAYGFQPDLVLVALGPGHGLQGPHAALLAAMLRGLAGGRVLALLEENSTPQLAGILARVLNGEAPPSLGPSSVASPEDVQALMYLRGQLEPQWKMLQCHPHLVA
Regarding B4, the binding result with NCOR2 was “binds”.

B5: Flag-USP28 (enzyme, UniProt Q96RU2 1-1077, looked up)
chain: MTAELQQDDAAGAADGHGSSCQMLLNQLREITGIQDPSFLHEALKASNGDITQAVSLLTDERVKEPSQDTVATEPSEVEGSAANKEVLAKVIDLTHDNKDDLQAAIALSLLESPKIQADGRDLNRMHEATSAETKRSKRKRCEVWGENPNPNDWRRVDGWPVGLKNVGNTCWFSAVIQSLFQLPEFRRLVLSYSLPQNVLENCRSHTEKRNIMFMQELQYLFALMMGSNRKFVDPSAALDLLKGAFRSSEEQQQDVSEFTHKLLDWLEDAFQLAVNVNSPRNKSENPMVQLFYGTFLTEGVREGKPFCNNETFGQYPLQVNGYRNLDECLEGAMVEGDVELLPSDHSVKYGQERWFTKLPPVLTFELSRFEFNQSLGQPEKIHNKLEFPQIIYMDRYMYRSKELIRNKRECIRKLKEEIKILQQKLERYVKYGSGPARFPLPDMLKYVIEFASTKPASESCPPESDTHMTLPLSSVHCSVSDQTSKESTSTESSSQDVESTFSSPEDSLPKSKPLTSSRSSMEMPSQPAPRTVTDEEINFVKTCLQRWRSEIEQDIQDLKTCIASTTQTIEQMYCDPLLRQVPYRLHAVLVHEGQANAGHYWAYIYNQPRQSWLKYNDISVTESSWEEVERDSYGGLRNVSAYCLMYINDKLPYFNAEAAPTESDQMSEVEALSVELKHYIQEDNWRFEQEVEEWEEEQSCKIPQMESSTNSSSQDYSTSQEPSVASSHGVRCLSSEHAVIVKEQTAQAIANTARAYEKSGVEAALSEVMLSPAMQGVILAIAKARQTFDRDGSEAGLIKAFHEEYSRLYQLAKETPTSHSDPRLQHVLVYFFQNEAPKRVVERTLLEQFADKNLSYDERSISIMKVAQAKLKEIGPDDMNMEEYKKWHEDYSLFRKVSVYLLTGLELYQKGKYQEALSYLVYAYQSNAALLMKGPRRGVKESVIALYRRKCLLELNAKAASLFETNDDHSVTEGINVMNELIIPCIHLIINNDISKDDLDAIEVMRNHWCSYLGQDIAENLQLCLGEFLPRLLDPSAEIIVLKEPPTIRPNSPYDLCSRFAAVMESIQGVSTVTVK
notes: not shown: Flag tag
With B5, the binding result with BRD4 [1] was “no binding”.

B6: GST-DUB3 C-terminal fragment (other, UniProt Q6R6M4 399-530, looked up)
chain: TDRRATQGELKRDHPCLQAPELDERLVERATQESTLDHWKFPQEQNKTKPEFNVRKVEGTLPPNVLVIHQSKYKCGMKNHHPEQQSSLLNLSSTTRTDQESVNTGTLASLQGRTRRSKGKNKHSKRALLVCQ
notes: also called C-terminal fragment of DUB3; not shown: glutathione S-transferase (GST) tag
As for B6, the binding result in the assay with BRD4 [3] is “no binding”.

B7: Flag-USP49 (enzyme, UniProt Q70CQ1 1-688, looked up)
chain: MDRCKHVGRLRLAQDHSILNPQKWCCLECATTESVWACLKCSHVACGRYIEDHALKHFEETGHPLAMEVRDLYVFCYLCKDYVLNDNPEGDLKLLRSSLLAVRGQKQDTPVRRGRTLRSMASGEDVVLPQRAPQGQPQMLTALWYRRQRLLARTLRLWFEKSSRGQAKLEQRRQEEALERKKEEARRRRREVKRRLLEELASTPPRKSARLLLHTPRDAGPAASRPAALPTSRRVPAATLKLRRQPAMAPGVTGLRNLGNTCYMNSILQVLSHLQKFRECFLNLDPSKTEHLFPKATNGKTQLSGKPTNSSATELSLRNDRAEACEREGFCWNGRASISRSLELIQNKEPSSKHISLCRELHTLFRVMWSGKWALVSPFAMLHSVWSLIPAFRGYDQQDAQEFLCELLHKVQQELESEGTTRRILIPFSQRKLTKQVLKVVNTIFHGQLLSQVTCISCNYKSNTIEPFWDLSLEFPERYHCIEKGFVPLNQTECLLTEMLAKFTETEALEGRIYACDQCNSKRRKSNPKPLVLSEARKQLMIYRLPQVLRLHLKRFRWSGRNHREKIGVHVVFDQVLTMEPYCCRDMLSSLDKETFAYDLSAVVMHHGKGFGSGHYTAYCYNTEGGFWVHCNDSKLNVCSVEEVCKTQAYILFYTQRTVQGNARISETHLQAQVQSSNNDEGRPQTFS
notes: not shown: Flag tag
Turning to B7, in the assay with BRD4 [1], the binding result is reported as “no binding”.
